Test: yeast display, Sf9 membrane polyspecificity reagent, FACS + sequencing; frameworks hold sequencing errors
How it was run: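 Sorting gates, low and high (top ~1%), were placed on anti-HA fluorescence to track expression and on streptavidin fluorescence to track reagent binding. A clone's polyreactivity label is taken from the gate it came out of. The reagent was 10% biotinylated, detergent-solubilized Sf9 membrane, applied for 1 hour at 4 °C to galactose-induced yeast display cells.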

Row | Sequence | polyreactivity (PSR sort gate)
1 | QVQLVESGGGLVQAGGSLRLSCAASGGTFSRYVMGWYRQAPGKERELVAAITRSGSTNYADSVKGRFTISRDNAKNTVYLQMNSLKPEDTAVYYCATDKRGRIGGTFDYWGQGTQVTVSS | low polyreactivity
2 | QVKRVESGGGIVQAGGSLRLSCAASGSTFHKNVMGWYRQEPGKERELVAAISIIGVRTYYADSVKGRFTISRDNAKNTVYLQINSLKQVDTAVYYCNTDTQNRRGSGRGFWGEGTQVTVSS | high polyreactivity
3 | QVQLVESGGGLVQAGGSLRLSCAASGSIFEINAMGWYRQAPGKERELVAAITGSGGSTHYADSVKGRFTISRDTAKNTVYLQMNSLKPEDTAVYYCAADICYFTKYGYWGQGTQVTVSS | low polyreactivity
4 | QVQLVESGGGLVQAGVSLRLSCAASGTFYSNAMGWYRQAPGKERELVAAINTSGSTNYADSVKGRFTISRDNAKNTVYLQMNSLKPEDTAVYYCAAGIVVTGYDYWGQGTQVTVSS | low polyreactivity
5 | QVQLVESGGGLVQAGGSLRLSCAASGFTLYGYAMGWYRQAPGKERELVAGIRYSGGRTYYADSVKGRFTISRDNAKNTVYLEMNSLKPEDTAVYYCAAVFKLSSSFYYWGQGTQVTVSS | high polyreactivity
6 | QVQLVESGGGLVQAGGSLRLSCAASGSTFYFNTMGWYRQAPGKERELVAAIRRSSGSTYYADSVKGRFTISRDNAKNTVYLQMNSLKPEDTAVYYCAADNAVTRYGRIDRDYWGQGTQVTVSS | low polyreactivity
7 | QDQLVETGGGLVQAGGSLRLSCAASGRIFAYNSMGWYRQAPGKERELVAAISWSGSSTYYADSVKGRFTISRDNAKNTVYLHMNCLKPEDTAVYYCAATPWYYYSTSYAYYYWGQGTQVTVSS | high polyreactivity
8 | QVQLVESGGGLVQAGGSLRLSCAASGFIFASYAMGWYRQAPGKERELVAAISWRGGSTYYADSVKGRFTISRDNAKNTVYLQMNSLKPEDTAVYYCNAYVYVGTGRGYDTLDYWGQGTQVTVSS | low polyreactivity
9 | QVQLVESGGGLVQAGGSLRLSCAASGRTFSWYAMGGYRQAPGTERELVASISRGGSKSYADSVKGRFTISRDNAKNTVYLQMNSLKPEYTAVYYCAAGGFARTISYYWGQGTQVTVSS | high polyreactivity
10 | QVQLVESGGGLVQAGGSLLLICAASGLTFYAKVMGWYRQAPGKERELVASISRSGGRTYYADSVKGSFTISRDNAKNTVYLQMNSLKPEDTAVYYSAAADQVGQEDDYWGQGSQVTVSS | low polyreactivity
11 | QVQLVESGGGLVQAGGSLRLSCAASGSTFQGNAMGWYRQAPGKERELVAAISKRGGSTYYADSVKGRFTISRDNAKNTVYLQMNSLKPEDTAVYFCNAKLFASRGYYFGGAYQYGYWGQGTQVTVSS | high polyreactivity
12 | QVQLVESGGGLVQAGGSLRLSCAASGSTFAYYTMGWYRQAPGKERELVAAISKSGGSTTYADSVKGRFTISRDNAKNTVYLQMNSLKPEETAVYYCAAARKYYGYNYWGQGTQVTVSS | high polyreactivity
13 | QVQLVESGGGLVQAGGSLRLSCAASGSTFTRYAMGWYRQAPGTERECVAGITSIGGRTYYADSVKGRFTISRDNAKNTVYLQMNSLKPEDTAVYYCAKRWGRYYYPYDYWGQGTQVTVSS | high polyreactivity
14 | QVQLEESGRGLVQAGGSLRLSCAASGSIFGVYTMGWYRPAPRKDRELVAAISASGGRTYYADSVKGRFTISRDTAKITVYLQMNSLKPEDTAVYYCAARASKGYGWYDYWGQGTQVTVSS | high polyreactivity
15 | QVQLVESGGGLVQAGGSLRLRCAASGLIFARNAMGWYRHAPGKERELVAAISRRGGSTYYADSVKGRFTISRDNAKNTVYLQMNSLKPEDTAVYYCAADTPYWQSSKYDYWGQGTQVTVSS | high polyreactivity
16 | QVQHVESGGGLVQAGGSLRLSCAASGRTFWINAMGWYRQARGKERELVAAITRGGRTYADSVKGRFTISRDNAKNSVYLQMNSLKPEDTAVYFCAADSYRLSGHHGYDFWGQGTQLTVSS | high polyreactivity
17 | QVQIVESGGGLVQAGGSLRLSCAASGRIFAYNAMGWYRQAPGKERELVVAISWTGGRTSYADSVKGRFTISCDNAKNTVYLQMNSLKPEDTAVYYCNARYRYRLRGYDYWGQGTQVTVSS | high polyreactivity
18 | QVQLVESGGGLVQAGGSLRLSCAASGSNFSFYAMGWYRQAPGKERELVAAISYSGGSTYYADSVKGRFTISRDNAKNTVYLQINSLKPEDTAVYYCNSDIYRHHGWVPGGYRGQGTQVTVSS | low polyreactivity
19 | QGQLVESAGGLVQAGGSLRLSCAASGSTFDYYTIGWYRQAPGKERELVAAISSSGGSTYYADSVKGRFTISRANAKNTVYLQMNSLKPVDTAVYYCAAKWDWGYGRGFQYGFNYWGQGTQVTVSS | low polyreactivity
20 | QVQLVESGGGLVQAGGSLRLSCAASGSIFGYYTMGWYRQAPGKERELVAAITSGGSTHYADSVKGRFTISRDNAKKTGYLQMNSLKPEDTAVYYCAKVSYYPWRYDYWGQGTQVTVSS | low polyreactivity

Row | Sequence | polyreactivity (PSR sort gate)
21 | QVQLVESGGGLVQAGGSLRLSCAASGSNFDTYAMGRYRQAPGKERELVAAITRRAGSTYYADSVKGRFRISRDNAKNTVYLQMNSLKPEDTSVYYCAADFRYPDIYGGYDYWGQGTQVTVSS | low polyreactivity
22 | QVQLVESGGGLVQAGRSLRLSCAASGLIFRYYPMGWYRQAPGKEREFVAAISGRGASTYYADSVKGRFTISRDYAKNSVYLQMNCLKPEDTAVYYCATFFPSAVVAFHMDYWGQGTQVTVSS | low polyreactivity
23 | QVQLVESGGGLVQAGGSLRLSCAASGITFYKNTMGWYRQAPGKERELVAAISSSGDNTFYADSVKGRFTISRDNAKNTVYLQMNSLKPEDTAVYYCATYRVINTIRGYYYTYDYWGQGTQVTVSS | high polyreactivity
24 | QVQLVESGGGLVQAGGSLRISCAASGSIFDLNAMGWYRQAPGKERELVAAISSGGRTTYADSVKGRFTISRDNAKNTVYLQMNSLKPEDTAFYYCNAVGDVFPRTGPIYDYWGQGSQVTVSS | high polyreactivity
25 | QVQLVESGGGLVQAGGSLRLSCAASGNTFPPNAMGWYRQAPGKERELVAAISWSGDSTYYADSVKGRFTISRDYAKNTVYLQMYSLKPEDTAVYYCAAAIFGEYEYWGQGTQVTVSS | low polyreactivity
26 | QVQLEESGGGLVQAGGSLRLSCAASGFIFSSNAKGWYRQAPGKERELVAAISSSGGRTYYADSVKGRFTISRDNAKNPVYLQMNSLIPEYTAVYYCNADPRSLGSANDWGQGTQVTVSS | high polyreactivity
27 | QVQLVESGGGLVQAGGSLRLSCAASGSIFYGNAMGWYRQAPGKERELVARISWSGSNTRYADSVKGRFTISRDNAKNTVYLQMNSLKPEDTAVYYCNVKPSARGSPLYDYWGQGTQVTVSS | high polyreactivity
28 | QVQLVESGGGLVQAGGSLRLSCAASGSIFVTYAMGWYRQAPGKERELVATITSSGGSTYYADSVKGRFTISRDNAKNTVYLQMNSLKPEDTAVYYCATDFGASVWDYFRRVYYWFGYWGQGTQVTVSS | low polyreactivity
29 | QVQLVESGGGLVQAGGSLRLSCPASGSIFNSYAMGWYRQAPGKERELVAAISSGGSTNYADSVKGRFTISRDNAKNTVYLQMNSLKPEDTAVYYCAKGSRKSGYKYYHGRVWFGYWGQGTQVTVSS | high polyreactivity
30 | QVQLVESGGGLVQAGGSLRLSCAASGSIIVLNAMGWYRQAPGKERELVAAITSGGSTYYADSVKGRFTISRDNAKNTVYLQMNSLKPEDTAVYYCNALDLSPSYKYDYWGQGTQVTVSS | low polyreactivity
31 | QVQLVESGGGLVQAGGSLRLSCAASGRIYPKNTMGWYRQERGKERELVAAINWNGGRTYYADSEKGRFTISRDNAKNTVYLPMNSLKPEYTAVYYCAKDGYWDFDYWGQGTQVTVSS | low polyreactivity
32 | QVQLVESGGGLVQAGGSLRLSCAASGRILSRYAMGWYRQAPGKERELVAAINKSGGSTYYADSVKGRFTISRDNAKNTVYLQMNSLKPEDTAVFYCNAVYYWYKGDYWGQGTQVTVSS | high polyreactivity
33 | QVQLVESGGGLVQAGGSLRLICAASGGTFNAYAMGWYRQAPGKERELVATISYSGGSTYYADSEKGRFTISRDNAKNTVYLQMNSLKPEDTAVYYCATDVYDSTPFRFDYWGQGTQVTVSS | low polyreactivity
34 | QVQLVESGGGLVQAGGSLPLSCAASGNIFVTYDMGWYRQAPGKERELVASISWNGGSTNYADSVRGLFTISRDNAKNTVYLQMNSLKPEDTAVYYCAAEYWTSYADYRYDYWGQGTQVTVSS | low polyreactivity
35 | QVQLVESGGGLVQAGGSLRLSCAASGRIFFSYMGWYRQAPGKERELVAAISSGGSTYYADSVKGRFTISRDNAKNTVYLQMNSLKPEDTAVYYCAARYRLDGTHMTGYAYYSWGQGTQVTVSS | high polyreactivity
36 | QVQLVESGGGLVQAGGSLRLSCAASGRTFDYYAMGWYRQAPGKERELVAAIRLISGNRYYADSVKGRFTISRDNAKNTVYLQMNSLKPEDTAVYYCAARSDGVPSLYGGMDYWRQGTQVTVSS | low polyreactivity
37 | QVQLVESGGGLVQAGGSLRLSCAASGFTFALYAMGWYRQAPGKERELVAAISSSGGSTYYADSVKGRFTISRDNAKNTVYLQMNSLKPEDTAVYYCNATRPYRYQSHTRTPRRGYWGQGTQVTVSS | high polyreactivity
38 | QVQIVESGGGLVQAGGSLRLSCAASGRIFDDYAMGWYRQAPGKEREFVAAISTSGGSTYYADSVMGRFTISRDNAKNTVYLKMNSLKPEDTAVYYCNKYGYYGWFGSRYWHDYWGQGTQVTVAS | high polyreactivity
39 | QVQLVESGGGLVQAGASLRLSCAASGSIFRGNAMGWYRQAPGKERQLVAAITRSGGRTYYADSVKGRFTISRDNAKNTVYLQMISMKPEDTAVYYCAAVSSYSRYRRTYYYWGHGTQVTVSS | high polyreactivity
40 | QVQLVESGGGLVQAGGSLRLSCAASGRTFSRYAMGWYRQAPGKERELVAAITYSGGRTYYADSVKGRFTISRDNAKNTVYLQMNSLKPEDTAVYYCAKGTTSDPGYGYWGQGTQVTVSS | low polyreactivity
